Assay results reported in US20070048268A1.

Biological target: human IL-21 receptor (human) (UniProt Q9HBE5)
Experiment: cell-based or functional assay

human IL-21-saporin immunotoxin conjugate (from UniProt P20656 25-277)
3H-thymidine incorporation of MOLT-13 cells, relative to IL-21 treated cells: 70% | growth inhibition of IM-9 cells, Alamar Blue proliferation assay, maximal conjugate concentration (250 ng/ml): 79% | growth inhibition of RAMOS cells, Alamar Blue proliferation assay, maximal conjugate concentration (250 ng/ml): 65% | growth of DEL cells, density relative to untreated cells: 25% | growth of HuT-78 cells, density relative to untreated cells: 33% | growth of HuT-102 cells, density relative to untreated cells: 20% | growth of YT cells, density relative to untreated cells: 33%
